One substance from patent US7462691 can be followed below.

A word on the Kd: it is the free concentration of one partner at which half of the binding sites on the other are occupied at equilibrium, for simple one-to-one binding. A word on the kon: it is the rate constant with which the complex forms.

This assay concerns the target recombinant secreted soluble PSCA with C-terminal 6XHis and MYC tag (human). Kind of assay: SPR (BIAcore), recombinant PSCA immobilised at low density (30 RU), mAb in solution. Background: Surface plasmon resonance follows binding to a sensor surface in real time, without labels.

recombinant secreted soluble PSCA with C-terminal 6XHis and MYC tag (human), sequence (chain, as listed by the source): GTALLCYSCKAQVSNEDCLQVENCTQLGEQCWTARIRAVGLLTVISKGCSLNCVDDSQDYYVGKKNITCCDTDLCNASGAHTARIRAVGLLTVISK

Regarding anti-PSCA monoclonal antibody 1G8, the Kd is 1 nM and the kon was determined as 168000 M⁻¹ s⁻¹.
